From publication PMC6748615
Where two headings read alike, the source gives them in different places.

How the values were obtained:
[1] = molecular target: biotinylated human FcRn (human) (UniProt P55899); assay: FcRn affinity chromatography
rat FcRn (rat) = rat FcRn (rat) (UniProt P13599); assay: SPR
[2] = molecular target: biotinylated human FcRn (human) (UniProt P55899); assay: SPR
[3] = molecular target: Human CD16a (FcγRIIIa-V158) (human) (UniProt P08637); assay: SPR
[4] = molecular target: biotinylated human FcRn (human) (UniProt P55899); assay: SPR; remark: listed apart in the source
[5] = molecular target: biotinylated human FcRn (human) (UniProt P55899)
[6] = molecular target: biotinylated cynomolgus FcRn (cynomolgus) (UniProt Q8SPV9)
UniProt Q8SPV9, sequence (Q8SPV9 24-297, chain 1 of 2): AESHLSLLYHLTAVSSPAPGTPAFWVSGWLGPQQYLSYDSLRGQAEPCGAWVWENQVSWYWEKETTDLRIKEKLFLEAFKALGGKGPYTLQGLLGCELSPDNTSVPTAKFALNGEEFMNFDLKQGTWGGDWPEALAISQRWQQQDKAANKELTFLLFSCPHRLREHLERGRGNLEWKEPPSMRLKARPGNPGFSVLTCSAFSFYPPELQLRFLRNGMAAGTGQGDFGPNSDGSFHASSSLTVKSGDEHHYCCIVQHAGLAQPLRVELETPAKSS
UniProt Q8SPV9, sequence (Q8SPW0 21-119, chain 2 of 2, further chain): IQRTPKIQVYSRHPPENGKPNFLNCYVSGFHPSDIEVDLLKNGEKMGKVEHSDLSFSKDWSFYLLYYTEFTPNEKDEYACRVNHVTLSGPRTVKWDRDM

mAb1 N434F = assay: BLI
mAb1 M252Y = assay: BLI
mAb1 N434Y = assay: BLI

Molecule	elution pH [1] [pH]	Kd (rat FcRn (rat)) [nM]	steady state RU, pH 7.4 (rat FcRn (rat)) [RU]	Kd [2] [nM]	koff [2] [s⁻¹]	kon [2] [M⁻¹ s⁻¹]	steady state RU, pH 7.4 [2] [RU]	also measured
mAb1 AAA (T307A/E380A/N434A) (antibody)	7.94	77	23.6	1780	0.144	83700	13.9	affinity fold change vs WT [3]: 0.89 fold
mAb1 E380C (antibody)	7.18	6310	–	–	–	–	–	–
mAb1 K288D (antibody)	7.33	149	–	–	–	–	–	–
mAb1 K288N (antibody)	7.39	190	–	–	–	–	–	–
mAb1 M252Y (antibody)	7.88	25	–	3100	–	–	–	–
mAb1 MDQN (DQ: T256D/T307Q) (antibody)	7.92	9.54	39.1	232	0.872	37600	10.7	steady state RU [3]: 103 RU
mAb1 N434F (antibody)	–	26	54.9	165	–	–	20.1	–
mAb1 T256D (antibody)	7.82	86	–	6700	–	–	–	–
mAb1 T307M (antibody)	7.4	279	–	–	–	–	–	–
mAb1 T307Q (antibody)	7.86	58	–	5720	0.215	39600	–	affinity fold change vs WT [3]: 1 fold
mAb1 WT (model IgG1) (antibody)	7.37	207	–	2380	0.386	162000	–	affinity fold change vs WT [3]: 1 fold
mAb1 Y436N (antibody)	7.22	233	–	–	–	–	–	–
mAb1 YDQN (M252Y/T256D/T307Q) (antibody)	8.51	5.12	65.2	115	0.282	24600	19.8	steady state RU [3]: 59.2 RU
mAb1 YETN (M252Y/T256E) (antibody)	7.83	8.43	55.1	128	0.757	59200	9.8	steady state RU [3]: 58.5 RU
mAb2 DQ (T256D/T307Q) (antibody)	–	–	–	–	–	–	–	plasma elimination half-life t1/2 in hFcRn Tg32 transgenic mice, 2.5 mg/kg i.v. [5]: 24.5 days
mAb2 DW (T256D/T307W) (antibody)	–	–	–	–	–	–	–	plasma elimination half-life t1/2 in hFcRn Tg32 transgenic mice, 2.5 mg/kg i.v. [5]: 20.1 days; plasma elimination half-life t1/2 in cynomolgus monkeys, 2.5 mg/kg i.v. [6]: 20.4 days
mAb2 YD (M252Y/T256D) (antibody)	–	–	–	–	–	–	–	plasma elimination half-life t1/2 in hFcRn Tg32 transgenic mice, 2.5 mg/kg i.v. [5]: 17.5 days; plasma elimination half-life t1/2 in cynomolgus monkeys, 2.5 mg/kg i.v. [6]: 23.5 days
rat FcRn (receptor) chain 1: AEPRLPLMYHLAAVSDLSTGLPSFWATGWLGAQQYLTYNNLRQEADPCGAWIWENQVSWYWEKETTDLKSKEQLFLEAIRTLENQINGTFTLQGLLGCELAPDNSSLPTAVFALNGEEFMRFNPRTGNWSGEWPETDIVGNLWMKQPEAARKESEFLLTSCPERLLGHLERGRQNLEWKEPPSMRLKARPGNSGSSVLTCAAFSFYPPELKFRFLRNGLASGSGNCSTGPNGDGSFHAWSLLEVKRGDEHHYQCQVEHEGLAQPLTVDLDSPARSS chain 2: IQKTPQIQVYSRHPPENGKPNFLNCYVSQFHPPQIEIELLKNGKKIPNIEMSDLSFSKDWSFYILAHTEFTPTETDVYACRVKHVTLKEPKTVTWDRDM	–	–	–	–	–	–	–	fold slower off rate than WT (mAb1 N434F): > 1.8 fold; fold slower off rate than WT (mAb1 M252Y): > 1.8 fold; fold slower off rate than WT (mAb1 N434Y): > 1.8 fold

Further lines, with some results ahead:

elution pH [1] [pH]	Kd (rat FcRn (rat)) [nM]	steady state RU, pH 7.4 (rat FcRn (rat)) [RU]	Kd [2] [nM]	koff [2] [s⁻¹]	kon [2] [M⁻¹ s⁻¹]	steady state RU, pH 7.4 [2] [RU]	Molecule	also measured
8.29	74	24.8	272	0.052	193000	18.3	mAb1 LS (M428L/N434S) (antibody)	steady state RU, pH 7.4 [4]: 18.5 RU; affinity fold change vs WT [3]: 1.04 fold
7.92	8.24	42.1	169	0.892	52900	12.2	mAb1 MDWN (DW: T256D/T307W) (antibody)	steady state RU [3]: 126 RU
7.56	194	–	–	–	–	–	mAb1 N434P (antibody)	–
8.46	23	47	137	0.052	359000	22.6	mAb1 N434Y (antibody)	affinity fold change vs WT [3]: 1.41 fold
7.63	113	–	–	–	–	–	mAb1 T256E (antibody)	–
7.61	132	–	–	–	–	–	mAb1 T307A (antibody)	–
7.58	141	–	8130	0.298	43700	–	mAb1 T307E (antibody)	–
7.61	131	–	–	–	–	–	mAb1 T307F (antibody)	–
7.75	111	–	8740	–	–	–	mAb1 T307W (antibody)	–
7.33	131	–	–	–	–	–	mAb1 Y436H (antibody)	–
7.39	1140	–	–	–	–	–	mAb1 Y436W (antibody)	–
8.29	5.86	56	93.6	0.593	63300	9.7	mAb1 YDTN (YD: M252Y/T256D) (antibody)	steady state RU [3]: 67.7 RU
8.12	7.76	61.8	218	0.405	18500	15.2	mAb1 YEQN (M252Y/T256E/T307Q) (antibody)	steady state RU [3]: 43.5 RU
8.14	–	53.9	342	–	143000	13.2	mAb1 YTE (M252Y/S254T/T256E) (antibody)	steady state RU, pH 7.4 [4]: 13.1 RU; affinity fold change vs WT [3]: 0.52 fold
8.14	5.21	66.1	118	–	48300	15.9	mAb1 YTWN (M252Y/T307W) (antibody)	steady state RU [3]: 67.5 RU
